Our source for the Km and kcat values is publication PMC5676521.

Broadly, the Km is the concentration of substrate that gives half-maximal velocity.

Substrate in the series: C[S+](CC[C@H](N)C(=O)[O-])C[C@H]1O[C@@H](n2cnc3c(N)ncnc32)[C@H](O)[C@@H]1O
Nature of the series: purified protein. The following applies: varied: cofactor.

B1: PRMT7 (TbPRMT7) (Trypanosoma brucei brucei TREU927) (protein)
chain: MPPKQHRHQKKDKNDNALQNTIGFVPPGATLASVSGYRPPDAFVNRIDRNIPVPARLRHTPVSLIEAVNDFHYAMMNDEERNNFYYEVLKKHVTPETGVLEIGAGSGLLSLMAAKLGAKWVVAVEGSEELAKLARENIRANNMEHQVKVLHMMSTELKSKHLPEPPDVLLSEIFGTMMLGESALDYVVDVRNRLLKPTTKIIPQFGTQYAVPIECDALHRISSVSGWRDLDLKHMMTLQDTVSIVFAKHYGIRMNSVNFRRLSDPIELFRVDFSSSNRNDIPRRKHFDVVAKESGTAHAMLFYWKVTDDEFVMSTDPEDTVNNFPRDMQWGQALQLLDASNGPLPTPVVFTEGKNYNFECNFSGDRVILHMQLCPESGNGEMTECEGKTT
Regarding B1, the Km came to 1.1 ± 0.2 µM and the kcat was 22.3 ± 0.6 h^–1.
